Patent publication US7871610B2, “Antibodies to Tie1 ectodomain” (Dyax Corp., priority 2003, dated 2011)

Legend:
[1] = tested on: bFGF-induced angiogenesis; assay: […] plug assay, bFGF-induced angiogenesis in NMRI nu/nu mice; assay type: in vivo, mouse
Experimental: The germlined variant of the E3 IgG antibody was evaluated in an in vivo assay for angiogenesis induced by bFGF in […]™ plugs. Growth factor reduced […]™ (BD Biosciences, catalog # 354230) was supplemented with 80 ng/ml of bFGF (R&D Systems, catalog #234-FSE). The A2-SV or an IgG4 E3 antibody (10 μg/ml) or PBS was injected subcutaneously into the abdominal area of NMRI nu/nu mice (150 μl of Matrigel/plug).
In the first assay, two mice were injected with […]™ supplemented with bFGF and soluble VEGFR-1 (10 μg/ml) as a positive control for an angiogenic inhibitor. At day 7 post-implantation mice were anesthetized and perfused through heart with 4% paraformaldehyde (PFA) in phosphate buffered saline (PBS). […]™ plugs and a piece of liver were removed and embedded in paraffin. Sections were cut and stained with hematoxylin and eosin (H&E).
In a second assay, mice were treated as described above, and then anesthetized eight days post-implantation and injected with fluorescein-conjugated tomato (lycopersicon esculentum) lectin (100 μg in 200 μl of PBS; Vector, catalog #FL-1171) into the tail vein. After five min circulation the animals were perfused through the heart with 10 ml of PBS followed by 10 ml of 4% PFA in PBS. […]™ plugs and pieces of kidney and liver were removed and frozen in OCT (Tissue-Tek). Nuclei were visualized on sections by using […]® mounting medium containing DAPI (Vector) and analyzed under fluorescence microscopy.

Mouse Tie 1-Fc = target: T1, Mouse Tie 1-Fc (Mus musculus, UniProt Q06806); assay: BIAcore, E3 Fabs on mouse Tie1-Fc; assay type: binding; details: Fab, mouse Tie1-Fc
T1 sequence (Q06806 23-755 limits assumed): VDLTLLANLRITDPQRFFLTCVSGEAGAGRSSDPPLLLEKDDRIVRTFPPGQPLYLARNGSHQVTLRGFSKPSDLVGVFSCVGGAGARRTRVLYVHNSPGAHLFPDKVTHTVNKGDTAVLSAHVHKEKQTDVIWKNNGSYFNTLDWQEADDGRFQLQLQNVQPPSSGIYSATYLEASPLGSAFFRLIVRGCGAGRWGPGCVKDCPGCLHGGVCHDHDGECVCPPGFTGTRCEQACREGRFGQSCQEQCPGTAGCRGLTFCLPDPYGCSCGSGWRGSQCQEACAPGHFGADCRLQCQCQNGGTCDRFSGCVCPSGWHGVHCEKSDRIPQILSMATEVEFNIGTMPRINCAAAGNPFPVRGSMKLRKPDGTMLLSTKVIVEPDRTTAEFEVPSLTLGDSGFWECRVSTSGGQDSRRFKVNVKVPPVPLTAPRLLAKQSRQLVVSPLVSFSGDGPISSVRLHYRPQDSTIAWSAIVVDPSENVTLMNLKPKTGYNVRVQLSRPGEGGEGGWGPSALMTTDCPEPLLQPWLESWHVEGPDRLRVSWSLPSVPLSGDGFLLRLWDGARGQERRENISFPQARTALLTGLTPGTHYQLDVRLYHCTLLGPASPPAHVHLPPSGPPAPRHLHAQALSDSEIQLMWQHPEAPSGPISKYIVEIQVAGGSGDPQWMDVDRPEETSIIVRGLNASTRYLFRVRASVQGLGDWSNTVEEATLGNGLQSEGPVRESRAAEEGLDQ
Experimental: Mouse Tie 1-Fc antigen (0.5 mg/ml stock) was biotinylated using established procedures and after dilution 1/100 fold in HBS this was then used for capturing to a streptavidin chip. This was coated to a resonance value of 740RU. All analysis was performed in HBS buffer. The parental Fab E3 0.587 mg/ml (11740 nM) was diluted 1/587 in HBS+BSA to obtain a stock of 20 nM and the germlined Fab E3 0.025 mg/ml (500 nM) was diluted 1/25 in HBS+BSA to obtain a stock of 20 nM. Serial dilutions were made of each Fab preparation to obtain 10 nM, 5 nM, 2.5 nM, and 1.25 nM. For the association phase samples were injected at 30 μl/min for 4 minutes using kinject program. This was followed by a 10 minutes dissociation phase, any remaining sample was stripped from the Tie-1 Fc surface at a flow of 50 μl/min with a single injection of 50 mM NaOH+1 M NaCl for 18 seconds. All samples were run and analyzed in duplicate.
Sensorgrams were analyzed using the simultaneous ka/kd fitting program with 1:1 model in the BIAEVALUATION™ software 3.1.

Tie1 = Tie1 (Homo sapiens, UniProt P35590); assay: Immunoprecipitation from HUVEC lysates; assay type: binding; set-up: endogenous in cells; host or cells: HUVEC; details: 5 μg/ml antibody
Experimental: The conclusion from this study was that platelets represent a large pool of Tie-1 immunoreactivity which could present a problem for development of Tie1 as a therapeutic target. […] Both, activated and inactivated platelets were tested. Anti-Tie-1 antibodies B2, D11, E3, the goat polyclonal AF619 (R&D) and negative control antibodies anti-FITC and anti-Streptavidin were used. HUVECS were retrieved from culture dishes by trypsinization and platelets were prepared with the platelet GelSep kit (Biocytex, Marseille, France) kit according to the guidelines of the manufacturer. Per immunoprecipitation experiment 3-5e10^6 and 3e10^8 cells platelets were used for each antibody tested. Platelets and cells were washed with PBS and spun down at 1400 rpm for 4 minutes and supernatant was removed. Then cells were lysed in 1 ml lysis buffer containing 50 mM Tris HCL pH 7.5, 150 mM NaCl, 0.5% Deoxycholic acid (DOC) and 0.5% NP-40 for 5 minutes. The lysed cells were spin down for 10 minutes at 14.000 rpm and 5 μg/ml antibody was added to the supernatant and incubated at 4° C. on a rotator. 100 μl/sample protein A beads (Uppsala, Sweden) were washed 3 times with lysis buffer (centrifugation speed: 1.5 seconds, 2000 rpm) then cell lysates incubated with antibody were added for 30 minutes 4° C. […] In Western blotting Tie-1 was detected with the polyclonal goat anti-Tie-1 antibody.

Tie1, sequence (P35590 22-1138): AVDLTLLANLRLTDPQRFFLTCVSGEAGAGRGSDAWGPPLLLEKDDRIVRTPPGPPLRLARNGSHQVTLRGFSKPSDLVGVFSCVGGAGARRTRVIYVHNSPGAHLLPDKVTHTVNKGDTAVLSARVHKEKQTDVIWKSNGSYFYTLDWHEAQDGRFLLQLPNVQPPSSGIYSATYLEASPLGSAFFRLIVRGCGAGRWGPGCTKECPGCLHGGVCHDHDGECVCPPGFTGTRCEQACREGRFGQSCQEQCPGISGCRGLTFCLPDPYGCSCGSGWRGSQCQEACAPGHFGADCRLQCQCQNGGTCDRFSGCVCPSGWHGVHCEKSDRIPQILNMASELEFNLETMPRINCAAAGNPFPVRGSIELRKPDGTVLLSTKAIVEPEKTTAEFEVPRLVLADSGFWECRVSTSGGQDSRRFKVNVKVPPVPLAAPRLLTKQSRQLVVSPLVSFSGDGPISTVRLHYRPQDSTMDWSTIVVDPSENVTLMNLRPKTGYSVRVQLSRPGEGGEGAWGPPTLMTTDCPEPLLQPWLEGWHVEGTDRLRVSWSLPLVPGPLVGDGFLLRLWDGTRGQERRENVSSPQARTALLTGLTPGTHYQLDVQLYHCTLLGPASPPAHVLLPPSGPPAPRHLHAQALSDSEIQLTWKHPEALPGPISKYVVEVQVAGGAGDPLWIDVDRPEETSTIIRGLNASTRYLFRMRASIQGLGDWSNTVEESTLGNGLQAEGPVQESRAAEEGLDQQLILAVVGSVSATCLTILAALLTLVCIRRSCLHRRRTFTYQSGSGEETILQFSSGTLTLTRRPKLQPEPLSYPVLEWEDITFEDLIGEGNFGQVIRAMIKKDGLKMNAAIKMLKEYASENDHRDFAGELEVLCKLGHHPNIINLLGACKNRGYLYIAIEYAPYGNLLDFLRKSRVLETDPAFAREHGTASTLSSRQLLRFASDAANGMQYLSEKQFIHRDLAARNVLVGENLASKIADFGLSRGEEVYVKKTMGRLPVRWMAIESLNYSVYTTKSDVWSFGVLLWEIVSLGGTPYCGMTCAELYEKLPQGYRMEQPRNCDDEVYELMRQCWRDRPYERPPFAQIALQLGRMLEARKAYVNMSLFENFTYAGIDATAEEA

B1: E3: human anti-Tie1 antibody from Fab phage library; HC SEQ ID NO:114, LC SEQ ID NO:116 (antibody, V domains shown)
VH: EVQLLESGGGLVQPGGSLRLSCAASGFTFSMYGMVWVRQAPGKGLEWVSVISPSGGNTGYADSVKGRFTISRDNSKNTLYLQVNSLRAEDTAVYYCARAPRGYSYGYYYWGQGTLVTVSSASTKGPSVFPLAPSSKSTSGG
VL: DIQMTQSPLSLSASVGDRVTITCRASQGIGHYLAWYQQKPGKVPKLLIYTASTLQSGVPSRFSGSGSGTDFTLTINSLQPEDVATYYCQQFNSYPHTFGQGTRLDIK
modifications: Synthetically generated peptide
[1]; conclusion from the two experiments
  bFGF-induced angiogenesis in vivo: can inhibit bFGF-induced angiogenesis in vivo
[1]; first assay, day 7, bFGF 80 ng/ml, antibody 10 μg/ml in plug, E3 = germlined variant, IgG4
  vessel-like structures in MATRIGEL plugs (H&E staining): neither modification of the matrix nor organization of the cells
[1]; second assay, eight days post-implantation, antibody 10 μg/ml in plug
  fluorescein-lectin staining of MATRIGEL plugs: no staining could be detected
Mouse Tie 1-Fc
  effect of germlining on binding activity: minimal effect on the binding activity
Tie1
  immunoprecipitation of Tie-1 from HUVEC: able to immune precipitate Tie-1 in HUVEC
